# Values quoted from earlier work as cited in article PMC9304195.
# Target: UGGT (Homo sapiens) (UniProt Q9NYU2)
# Sequence (Q9NYU2 43-1555): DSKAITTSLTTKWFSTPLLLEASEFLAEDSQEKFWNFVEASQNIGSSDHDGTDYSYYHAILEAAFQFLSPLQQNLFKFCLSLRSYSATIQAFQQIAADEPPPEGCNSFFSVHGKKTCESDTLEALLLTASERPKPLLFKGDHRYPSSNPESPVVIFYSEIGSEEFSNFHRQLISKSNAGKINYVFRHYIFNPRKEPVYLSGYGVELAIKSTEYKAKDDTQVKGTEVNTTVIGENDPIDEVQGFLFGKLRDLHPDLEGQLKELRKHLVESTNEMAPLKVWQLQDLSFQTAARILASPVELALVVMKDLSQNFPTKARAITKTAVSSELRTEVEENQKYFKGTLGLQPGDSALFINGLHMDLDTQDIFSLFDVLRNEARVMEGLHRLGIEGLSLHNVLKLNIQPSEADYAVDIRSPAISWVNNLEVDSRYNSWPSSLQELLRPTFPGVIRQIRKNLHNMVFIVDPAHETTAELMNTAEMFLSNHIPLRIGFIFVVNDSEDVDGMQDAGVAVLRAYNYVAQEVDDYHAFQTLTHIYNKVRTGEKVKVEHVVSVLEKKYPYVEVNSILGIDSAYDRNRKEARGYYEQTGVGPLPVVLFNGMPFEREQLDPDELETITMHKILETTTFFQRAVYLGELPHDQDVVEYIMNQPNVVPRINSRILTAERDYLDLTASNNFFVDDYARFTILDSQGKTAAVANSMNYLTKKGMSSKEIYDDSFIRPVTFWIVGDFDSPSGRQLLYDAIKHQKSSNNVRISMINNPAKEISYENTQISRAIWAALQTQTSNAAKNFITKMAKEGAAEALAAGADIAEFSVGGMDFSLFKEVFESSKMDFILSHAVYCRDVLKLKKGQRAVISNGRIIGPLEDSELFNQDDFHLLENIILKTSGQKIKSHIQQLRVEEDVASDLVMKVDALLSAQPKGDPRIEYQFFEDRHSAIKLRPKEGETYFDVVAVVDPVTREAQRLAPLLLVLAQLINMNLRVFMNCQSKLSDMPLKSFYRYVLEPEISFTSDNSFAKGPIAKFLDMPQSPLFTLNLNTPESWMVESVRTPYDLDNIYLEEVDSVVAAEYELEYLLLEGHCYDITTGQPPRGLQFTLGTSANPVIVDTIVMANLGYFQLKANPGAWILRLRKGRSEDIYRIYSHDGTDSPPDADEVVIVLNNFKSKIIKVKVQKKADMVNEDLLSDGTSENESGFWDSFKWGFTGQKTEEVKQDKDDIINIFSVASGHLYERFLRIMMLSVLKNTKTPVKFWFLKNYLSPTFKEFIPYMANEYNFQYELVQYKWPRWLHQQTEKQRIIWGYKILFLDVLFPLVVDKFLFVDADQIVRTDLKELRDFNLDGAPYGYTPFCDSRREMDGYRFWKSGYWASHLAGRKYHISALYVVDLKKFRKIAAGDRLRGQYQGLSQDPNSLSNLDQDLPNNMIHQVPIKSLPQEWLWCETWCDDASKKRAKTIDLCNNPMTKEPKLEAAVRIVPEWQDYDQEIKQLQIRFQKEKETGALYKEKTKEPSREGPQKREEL
# Chain of SELENOF (O60613 32-165): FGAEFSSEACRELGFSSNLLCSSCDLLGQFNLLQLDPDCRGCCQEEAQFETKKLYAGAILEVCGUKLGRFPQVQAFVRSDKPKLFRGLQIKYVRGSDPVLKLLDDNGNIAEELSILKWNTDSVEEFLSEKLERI
substance,measurement,value
SELENOF (from UniProt O60613),Kd,20 nM
